# Results taken from article PMC8918354.
# Target: iron superoxide dismutase SodB from Acinetobacter sp. Ver3 (Acinetobacter sp. Ver3)
# Experiment: crystal structure; space group C222(1), one molecule per asymmetric unit, dimer formed by crystallographic symmetry; 1.34 Å; crystals grown at 20 °C from 10 mg/ml protein with 1 mM FMN in the mother liquor
substance,measurement,value
iron superoxide dismutase SodB from Acinetobacter sp. Ver3 (enzyme),stoichiometry N,2
